# Source: patent US10005846 (LIFEARC, dated 2018)
# Residue numbers refer to the chain shown, from its start.
# T1: human transglutaminase type 2 (TG2) (human, UniProt P21980 1-687)
# T1 construct: Recombinant full-length human TG2 (Zedira; cat; T002 in the Biacore work); Also used here for the endogenous TG2 of HepG2 lysate and HK-2 cells; also called hTG2; rhTG2
# T1 sequence: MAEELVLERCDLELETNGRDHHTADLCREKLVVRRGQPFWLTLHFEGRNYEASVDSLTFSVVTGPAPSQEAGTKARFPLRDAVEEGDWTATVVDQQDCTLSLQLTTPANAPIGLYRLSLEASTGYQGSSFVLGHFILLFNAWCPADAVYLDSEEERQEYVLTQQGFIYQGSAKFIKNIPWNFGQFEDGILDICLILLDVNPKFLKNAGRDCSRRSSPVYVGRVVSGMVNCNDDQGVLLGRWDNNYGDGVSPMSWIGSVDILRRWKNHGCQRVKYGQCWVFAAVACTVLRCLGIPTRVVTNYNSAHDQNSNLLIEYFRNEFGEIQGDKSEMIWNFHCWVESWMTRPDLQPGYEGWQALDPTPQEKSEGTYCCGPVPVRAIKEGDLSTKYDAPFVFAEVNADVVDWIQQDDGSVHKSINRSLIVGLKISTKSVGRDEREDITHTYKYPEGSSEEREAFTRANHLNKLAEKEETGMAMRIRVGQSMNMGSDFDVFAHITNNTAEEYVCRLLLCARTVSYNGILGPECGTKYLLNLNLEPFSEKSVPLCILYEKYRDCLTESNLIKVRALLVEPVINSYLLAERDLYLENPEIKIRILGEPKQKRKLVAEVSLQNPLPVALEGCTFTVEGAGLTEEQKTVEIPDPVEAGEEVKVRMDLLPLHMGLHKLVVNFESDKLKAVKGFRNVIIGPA
# T2: cynomolgus monkey TG2 (cynomolgus monkey, UniProt A0A2K5VXI8 1-687)
# T2 construct: Bought recombinant protein; also called cynomogulus monkey TG2; cyano TG2
# T2 sequence: T1 sequence with E4D, Q157R, N177S, H413S, I421T, Y528H, V542I
# B1: cBB001 chimeric antibody (murine BB7 variable regions) (antibody, human IgG1, V domains shown)
# VH: AVQLVESGGGLVKPGGSLKLSCAASGIIFSSSAMSWVRQTPEKRLEWVATISSGGRSTYYPDSVKGRFTVSRDSAKNTLYLQMDSLRSEDTAIYYCAKLISPYWGQGTTLTVSS
# VL: AIKMTQSPSSMYASLGERVIITCKASQDINSYLTWFQQKPGKSPKTLIYLTNRLMDGVPSRFSGSGSGQEFLLTISGLEHEDMGIYYCLQYVDFPYTFGGGTKLEIK
# notes: also called chimeric BB7
# B2: cDH001 chimeric antibody (murine DH2 variable regions) (antibody, human IgG1, V domains shown)
# VH: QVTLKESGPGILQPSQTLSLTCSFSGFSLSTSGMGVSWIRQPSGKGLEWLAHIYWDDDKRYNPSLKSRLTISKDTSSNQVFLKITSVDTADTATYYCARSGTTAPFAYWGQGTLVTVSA
# VL: QIVLTQSPAIMSASPGEKVTMTCSASSSVSYMYWYQQKPGSSPRLLIYDTSNLASGVPVRFSGSGSGTSYSLTISRMEAEDAATFYCQQWSSSPLTFGAGTKLELK
# B3: cDD9001 chimeric antibody (murine DD9 variable regions) (antibody, human IgG1, V domains shown)
# VH: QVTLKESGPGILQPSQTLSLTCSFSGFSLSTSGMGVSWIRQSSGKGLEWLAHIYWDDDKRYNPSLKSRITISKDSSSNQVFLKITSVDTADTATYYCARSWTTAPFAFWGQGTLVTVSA
# VL: B2 VL with S30D, E78G, F85Y, S91N
# Biological target: T1, human transglutaminase type 2 (TG2)
# Test: SPR (Biacore T200), antibody captured on anti-human IgG1 Fc chip, TG2 injected; +Ca2+
# Description: (§1) Recombinant cynomolgus monkey TG2 was obtained from Trenzyme. Surface plasmon resonance (SPR) was measured on a Biacore T200 instrument (GE Healthcare). CM5 chips (GE Healthcare cat. no.: BR-1006-68) were coated with monoclonal mouse anti-human IgG1 (Fc) (MAH) antibody (GE Healthcare cat. no.: BR-1008-39) by amine-coupling as described in the manufacturers instructions. HBS-EP+ buffer (0.01 M HEPES, 0.15 M NaCl, 3 mM EDTA, 0.05% v/v Surfactant P20) and HBS-P+ buffer (0.01 M HEPES, 0.15 M NaCl, 0.05% Surfactant P20) were purchased from GE Healthcare as 10× stocks (cat. nos.: BR-1006-69 and BR-1006-71). Calcium Chloride solution was obtained from Sigma Aldrich (cat. no.:21115).
# (§2) The method employed to determine the affinity of the anti-TG2 antibodies involved the capture of the chimeric or humanised antibodies on a MAH coated CM5 chip, followed by the injection of a series of TG2 samples in running buffer. The running buffer was 1×HBS-P+ containing 1 mM CaCl_2, or 1×HBS-EP+ for calcium-free experiments. Antibody capture was carried out for a contact time of 120 seconds at a flow rate of 10 μl/min resulting in the capture of approximately 40-80 RU. TG2 was injected over the immobilised antibody at concentrations ranging from 25 nM to 400 nM with a contact time up to 600 seconds at a flow rate of 30 μl/min. Dissociation of TG2 was typically measured for up to 5400 seconds (1.5 hours). Regeneration of the chip was then performed using 3 M MgCl_2, for a contact time of 60 seconds at a flow rate of […], followed by a 300 s stabilisation period before the next sample. For each of human and cynomolgus monkey TG2, at least 5 injections at a variety of concentrations were performed in at least two separate experiments.
# (§3) Kinetic data were exported from the Biacore T200 Evaluation Software and analysed using GraphPad Prism, where the association phases and dissociation phases were analysed separately using a one phase association model and one-phase exponential decay model respectively. Association rates ($kon$) were calculated for each curve individually, and dissociation rates ($koff$) values from the long dissociation phase data collected. Where $koff$ values were calculated to be $<1\times10^-5$ s^-1, values were set at 1×10^-5 for analysis, as rates slower than this could not be estimated accurately.
Kd [pM],koff [s⁻¹],kon [M⁻¹ s⁻¹],Binder
< 50,< 1e-05,210000,B1
640,1.8e-05,28000,B2
430,1.3e-05,30000,B3

# Biological target: T2, cynomolgus monkey TG2
# Test: as above
# Description: as §1, §2, §3
Kd [pM],koff [s⁻¹],kon [M⁻¹ s⁻¹],Binder
< 30,< 1e-05,290000,B1
< 700,< 1e-05,15000,B2
520,1.6e-05,31000,B3
